Assays:
Assay type in all cases: biochemical
[1] = GalNAc-T activity in absence and presence of LA, acceptor Glc; settings: in the presence of LA
Procedure: Gal-T and GalNAc-T Enzyme Assays: The protein concentrations were measured using the Bio-Rad protein assay kit, based on the method of Bradford and further verified on SDS gel. […] The activities were measured using UDP-Gal or UDP-GalNAc as sugar nucleotide donors, and GlcNAc and Glc as the acceptor sugars. For the specific activity measurements, a 100-μl incubation mixture containing 50 mM β-benzyl-GlcNAc, 10 mM MnCl2, 10 mM Tris-HCl, pH 8.0, 500 μM UDP-Gal or UDP-GalNAc, 20 ng of Gal-T1, and 0.5 μCl of [^3H]UDP-Gal or [^3H]UDP-GalNAc was used for each Gal-T or GalNAc-T reaction. The incubation was carried out at 37° C. for 10 min. […] The column was washed successfully with 300, 400, and 500 μl of water, and the column flow-through was diluted with Biosafe scintillation fluid; radioactivity was measured with a Beckman counter. A reaction without the acceptor sugar was used as a control. […]

[2] = GalNAc-T specific activity assay; settings: for UDP-GalNAc → GlcNAc GalNAc-T activity: donor 500 μM, acceptor β-benzyl-GlcNAc 25 mM
Procedure: (§1) For example, the galactose and N-acetylgalactosyltransferase activity of β(1,4)-galactosyltransferase I can be determined using the following assay conditions. […], 10 mM MnCl2, 10 mM Tris-HCl (pH 8.0), 500 μM UDP-Gal or UDP-GalNAc, and 20 ng of β(1,4)-galactosyltransferase I can be incubated at 37° C. for 10 minutes to promote coupling of a donor sugar to an acceptor sugar. While these conditions are provided as an example, it is understood that many other conditions may be used to chemically link a donor to an acceptor using the altered catalytic domains of the invention.
(§2) Gal-T and GalNAc-T Enzyme Assays: The protein concentrations were measured using the Bio-Rad protein assay kit, based on the method of Bradford and further verified on SDS gel. […] The activities were measured using UDP-Gal or UDP-GalNAc as sugar nucleotide donors, and GlcNAc and Glc as the acceptor sugars. For the specific activity measurements, […], 10 mM MnCl2, 10 mM Tris-HCl, pH 8.0, 500 μM UDP-Gal or UDP-GalNAc, 20 ng of Gal-T1, and 0.5 μCl of [^3H]UDP-Gal or [^3H]UDP-GalNAc was used for each Gal-T or GalNAc-T reaction. The incubation was carried out at 37° C. for 10 min. […] The column was washed successfully with 300, 400, and 500 μl of water, and the column flow-through was diluted with Biosafe scintillation fluid; radioactivity was measured with a Beckman counter. A reaction without the acceptor sugar was used as a control. A similar assay was carried out to measure the GalNAc-T activity with Glc and other acceptors in the presence of 50 μM bovine LA (Sigma).

[3] = Gal-T specific activity assay; settings: donor 500 μM; acceptor β-benzyl-GlcNAc 25 mM (10 mM for C342T); saturating conditions
Procedure: as §1, §2

[4] = GlcNAc-T specific activity assay; settings: donor 500 μM; acceptor β-benzyl-GlcNAc 25 mM
[5] = Two-substrate kinetic constants, Gal-T reaction; settings: UDP-galactose → GlcNAc
Excerpt: Studies for Determining the Kinetic Constants: The true Km of the donor (KA) and of the acceptor (KB), the dissociation constant of the donor, Ki(a), and kcat were obtained using two-substrate analyses and the primary plots of five concentrations of donor (UDP-Gal or UDP-GalNAc) and five concentrations of acceptor, and the corresponding secondary plots of the intercepts and slopes. Initial rate conditions were linear with respect to time. A suitable range of donor and acceptor concentrations were chosen, which allowed an accurate Michaelis-Menten plot to be derived. The data were also analyzed for a general two-substrate system using the following equations (Zhang et al., Glycobiology, 9:815-822 (1999)) with the software EnzFitter, a Biosoft nonlinear curve-fitting program for Windows.
[formula] Here v is the initial velocity and the rate equation for sequential symmetrical initial velocity pattern associated with Equation 1, an ordered or random equilibrium mechanism in which substrate A dissociates well from the E-S complex with a dissociation constant of Ki(a). Equation 2 is for asymmetric initial velocity pattern for a double displacement or “ping-pong” mechanism. The kinetic parameters KA, KB, Ki(a), and Vmax, were obtained from the fitted curves using the above rate equations. The graphical method and EnzFitter program gave very similar kinetic parameters. In the N-acetylgalactosamine transferase (GalNAc-T) assay, the maximum substrate concentrations used for UDP-GalNAc and GlcNAc were 1 and 200 mM, respectively. However, in the galactose transferase (Gal-T) assay, because of the limited solubility of GlcNAc in water, the concentration of GlcNAc was limited to no more than […] (which is 2-fold higher than its Km value), whereas up to 300 μM UDP-Gal were used.

[6] = β4Gal-T1 enzyme assay of in vitro folded CD and SRCD proteins; settings: condition I or VIII
Procedure: β4Gal-T1 Enzyme Assays: The in vitro assay for β4Gal-T1 enzyme activity was performed as described (Boeggeman et al., Glycobiology, 12:395-407 (2002)). The ^3H-labeled-UDP-Gal was used as sugar donor and GlcNAc as the sugar acceptor. A reaction without GlcNAc was used as a control.
Binding of recombinant proteins to UDP-affinity column: UDP-agarose was used to bind the active proteins at 4° C. Columns containing 1 ml bed volume of UDP-agarose were pre-equilibrated with 10 ml of 25 mM cacodylic buffer, pH 7.6, containing 25 mM MnCl2. The renatured protein solutions (0.5 mg) were adjusted to the pre-equilibration buffer conditions and applied to the columns. After loading the sample, the pass-through was re-cycled. It was then analyzed for the unbound protein by SDS-PAGE. The columns were washed 3× with 1-ml portions of equilibration buffer. The bound protein was eluted with the elution buffer consisting of 25 mM cacodylic buffer, pH 7.6, 25 mM EDTA and 1 M NaCl. Fractions of 0.5 ml were collected from the columns, and aliquots were analysed by SDS-PAGE. For enzymatic analysis the appropriate fractions were pooled and dialysed against 50 mM Tris-HCl pH 8.0 at 4° C. […]

B1: Y289N: bovine Gal-T1 catalytic domain, Tyr-289 exchanged with Asn (protein)
chain: SLTACPEESPLLVGPMLIEFNIPVDLKLIEQQNPKVKLGGRYTPMDCISPHKVAIIILFRNRQEHLKYWLYYLHPMVQRQQLDYGIYVINQAGESMFNRAKLLNVGFKEALKDYDYNCFVFSDVDLIPMNDHNTYRCFSQPRHISVAMDKFGFSLPYVQNFGGVSALSKQQFLSINGFPNNYWGWGGEDDDIYNRLAFRGMSVSRPNAVIGKTRMIRHSRDKKNEPNPQRFDRIAHTKETMLSDGLNSLTYMVLEVQRYPLYTKITVDIGTPS
acceptor preference of GalNAc transfer [1]: transfer GalNAc preferably to Glc rather than to GlcNAc | galactose transferase versus N-acetylgalactosyltransferase activity ([2]; comparison in words (Table III, FIG. 1)): equally strong galactose transferase and N-acetylgalactosyltransferase activities

B2: C342T: catalytic domain of bovine Gal-T1 (residues 130-402) with the C342T mutation (protein, UniProt P08037 130-402, looked up, variant C342T)
chain: SLTACPEESPLLVGPMLIEFNIPVDLKLVEQQNPKVKLGGRYTPMDCISPHKVAIIIPFRNRQEHLKYWLYYLHPILQRQQLDYGIYVINQAGESMFNRAKLLNVGFKEALKDYDYNCFVFSDVDLIPMNDHNTYRCFSQPRHISVAMDKFGFSLPYVQYFGGVSALSKQQFLSINGFPNNYWGWGGEDDDIYNRLAFRGMSVSRPNAVIGKTRMIRHSRDKKNEPNPQRFDRIAHTKETMLSDGLNSLTYMVLEVQRYPLYTKITVDIGTPS
modifications: catalytic domain
notes: catalytic domain of bovine Gal-T1 (residues 130-402) with the C342T mutation
UDP-GalNAc → GlcNAc GalNAc-T activity [2]: 0.1 pmol/min/ng | UDP-galactose → GlcNAc Gal-T activity [3]: 11.8 pmol/min/ng | UDP-GlcNAc → GlcNAc GlcNAc-T activity [4]: 0 pmol/min/ng | KA (true Km of the donor), Gal-T [5]: 98 (6) μM | KB (true Km of the acceptor), Gal-T [5]: 11 (1) MM | Kcat., Gal-T ([5]; unit assumed): 14 s⁻¹

B3: bovine CDβ4Gal-T1: catalytic domain (residues 130-402) of bovine β4Gal-T1 (protein, UniProt P08037 130-402, looked up, fragment)
chain: SLTACPEESPLLVGPMLIEFNIPVDLKLVEQQNPKVKLGGRYTPMDCISPHKVAIIIPFRNRQEHLKYWLYYLHPILQRQQLDYGIYVINQAGESMFNRAKLLNVGFKEALKDYDYNCFVFSDVDLIPMNDHNTYRCFSQPRHISVAMDKFGFSLPYVQYFGGVSALSKQQFLSINGFPNNYWGWGGEDDDIYNRLAFRGMSVSRPNAVIGKCRMIRHSRDKKNEPNPQRFDRIAHTKETMLSDGLNSLTYMVLEVQRYPLYTKITVDIGTPS
modifications: catalytic domain
notes: catalytic domain (residues 130-402) of bovine β4Gal-T1
specific activity before and after binding on UDP-agarose columns [6]: did not change

B4: Y289I_C342T: bovine Gal-T1 catalytic domain (residues 130-402), Tyr-289 exchanged with Ile, with Cys-342 to Thr mutation (protein)
chain: SLTACPEESPLLVGPMLIEFNIPVDLKLIEQQNPKVKLGGRYTPMDCISPHKVAIIILFRNRQEHLKYWLYYLHPMVQRQQLDYGIYVINQAGESMFNRAKLLNVGFKEALKDYDYNCFVFSDVDLIPMNDHNTYRCFSQPRHISVAMDKFGFSLPYVQIFGGVSALSKQQFLSINGFPNNYWGWGGEDDDIYNRLAFRGMSVSRPNAVIGKTRMIRHSRDKKNEPNPQRFDRIAHTKETMLSDGLNSLTYMVLEVQRYPLYTKITVDIGTPS
acceptor preference of GalNAc transfer [1]: transfer GalNAc preferably to Glc rather than to GlcNAc | affinity to UDP-GalNAc ([2]; FIG. 1, in words): slightly weaker affinity | specific N-acetylgalactosyltransferase activity relative to Y289L ([2]; at the substrate concentration used): half that of Y289L | UDP-GalNAc → GlcNAc GalNAc-T activity [2]: 14.7 pmol/min/ng | UDP-galactose → GlcNAc Gal-T activity [3]: 8.8 pmol/min/ng | UDP-GlcNAc → GlcNAc GlcNAc-T activity [4]: 6.2 pmol/min/ng

Source: patent US7482133B2, “Catalytic domains of β(1,4)-galactosyltransferase I having altered donor and acceptor specificities, domains that promote in vitro protein folding, and methods for their use” (The United States of America as represented by the …, priority 2003, dated 2009)
